This is an account of results in patent publication US6423315.

This assay addresses I-A^q molecule of MHC (mouse (DBA/1)). In words: cell-based or functional assay.

B1: CII 245-270 (peptide)
peptide: PTGPLGPKGQTGZLGIAGFKGZQGPK
Consider B1, for which the IL-2 U/ml, T-cell hybridoma 2qCII92.33, molar ratio 0:1 (no competitor; baseline in the row of CII 245-270 [s260, 261, 263]) turned out to be 160 U/ml; the IL-2 U/ml, T-cell hybridoma 2qCII92.33, molar ratio 0:1 (no competitor; baseline in the row of CII 245-270 [s266, 267, 269]) was 160 U/ml; the IL-2 U/ml, T-cell hybridoma qCII85.33, molar ratio 0:1 (no competitor; baseline in the row of CII 245-270 [s260, 261, 263]) was determined as 640 U/ml; the IL-2 U/ml, T-cell hybridoma qCII85.33, molar ratio 0:1 (no competitor; baseline in the row of CII 245-270 [s266, 267, 269]) amounted to 640 U/ml. For the same molecule, the IL-2 U/ml, T-cell hybridoma qCII98.10, molar ratio 0:1 (no competitor; baseline in the row of CII 245-270 [s260, 261, 263]) is 160 U/ml and the IL-2 U/ml, T-cell hybridoma qCII98.10, molar ratio 0:1 (no competitor; baseline in the row of CII 245-270 [s266, 267, 269]) was determined as 160 U/ml.
